Source: patent publication US20250230222A1 (NORTHWESTERN UNIVERSITY, published 2025)

Target: SARS-nCoV-2 Spike RBD (Raybiotech, catalog no. 230-30162), recombinant wildtype (SARS-CoV-2, UniProt P0DTC2 319-541)

B1: IgG 106/107 (antibody, V domains shown)
VH: EVQLVESGGGLVQPGGSLRLSCVASGITVSANYMSWVRQAPGKGLEWVSVIYSGGSTFYADSVKGRFTISRDNSKNTLYLQMNNLRADDTAVYSCARDFRGATAFDIWGQGTMVTVSS
VL: QSALTQPASVSGSPGQSITISCTATSSDVDDYNYVSWYQQHPGKAPKLLIYDVNNRPSGVSNRFSGSKSGNTASLTISGLQAEDEADYYCSSYTSSSTGVFGSGTKVTVLG
IC50: < 0.5 nM
